Measurements published in patent publication US20140336116A1 (GLYTECH, published 2014).
Like-named read-outs stand apart in the source and are kept apart here. Bridges are numbered along the chain shown (N, C = ends). Where no end group is shown, it is not given here. Side-chain parts run from the residue outwards. disialo(aminoethylamide) = disialo sugar chain with sialic acid carboxy groups modified by aminoethylamino groups; diGlcNAc = diGlcNAc sugar chain; disialo = disialo sugar chain; GlcNAc = N-acetylglucosamine; asialo = not defined here

Assays:
[1] = target: T1, somatostatin receptor SSTR4 (Human, UniProt P31391 1-388); experiment: cell-based or functional assay
T1 sequence (P31391 whole entry): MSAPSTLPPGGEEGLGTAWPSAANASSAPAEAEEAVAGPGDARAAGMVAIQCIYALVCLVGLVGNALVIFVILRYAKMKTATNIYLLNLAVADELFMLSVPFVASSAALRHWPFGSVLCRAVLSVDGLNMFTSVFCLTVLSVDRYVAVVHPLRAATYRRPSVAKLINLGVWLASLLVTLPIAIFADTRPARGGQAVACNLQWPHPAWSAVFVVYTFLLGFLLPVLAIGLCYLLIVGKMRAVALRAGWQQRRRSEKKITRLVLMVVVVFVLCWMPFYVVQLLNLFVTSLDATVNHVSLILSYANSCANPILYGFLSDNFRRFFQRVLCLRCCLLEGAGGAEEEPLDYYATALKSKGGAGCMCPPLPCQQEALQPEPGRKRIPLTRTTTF

[2] = target: T2, somatostatin receptor SSTR2 (Human, UniProt P30874 1-369); experiment: cell-based or functional assay
T2 sequence (P30874 whole entry): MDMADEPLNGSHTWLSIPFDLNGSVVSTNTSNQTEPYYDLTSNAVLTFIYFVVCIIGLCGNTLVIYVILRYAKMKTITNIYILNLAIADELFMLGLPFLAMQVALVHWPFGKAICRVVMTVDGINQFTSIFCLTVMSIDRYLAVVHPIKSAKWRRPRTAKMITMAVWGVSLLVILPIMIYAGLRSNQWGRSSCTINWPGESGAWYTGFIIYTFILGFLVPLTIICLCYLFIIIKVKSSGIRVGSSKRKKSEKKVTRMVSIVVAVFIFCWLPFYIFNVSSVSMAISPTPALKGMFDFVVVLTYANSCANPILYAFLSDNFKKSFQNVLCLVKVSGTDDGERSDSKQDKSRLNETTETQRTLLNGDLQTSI

[3] = target: T2, somatostatin receptor SSTR2; experiment: radioligand competition
[4] = target: somatostatin receptor SSTR5 (Human, UniProt P35346 1-364); experiment: cell-based or functional assay
somatostatin receptor SSTR5, sequence (P35346 whole entry): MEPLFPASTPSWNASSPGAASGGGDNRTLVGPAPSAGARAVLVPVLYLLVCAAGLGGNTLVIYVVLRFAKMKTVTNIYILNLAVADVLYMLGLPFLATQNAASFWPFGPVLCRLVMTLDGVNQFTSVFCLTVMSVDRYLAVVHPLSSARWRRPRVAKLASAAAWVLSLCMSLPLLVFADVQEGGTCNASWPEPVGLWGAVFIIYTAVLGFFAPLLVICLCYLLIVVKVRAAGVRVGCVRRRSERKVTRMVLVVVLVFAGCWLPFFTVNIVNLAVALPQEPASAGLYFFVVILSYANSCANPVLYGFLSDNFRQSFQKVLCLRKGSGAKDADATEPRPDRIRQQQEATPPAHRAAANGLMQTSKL

[5] = target: T2, somatostatin receptor SSTR2; experiment: cell-based or functional assay; remark: listed apart in the source
[6] = target: T3, somatostatin receptor SSTR3 (Human, UniProt P32745 1-418); experiment: cell-based or functional assay
T3 sequence (P32745 whole entry): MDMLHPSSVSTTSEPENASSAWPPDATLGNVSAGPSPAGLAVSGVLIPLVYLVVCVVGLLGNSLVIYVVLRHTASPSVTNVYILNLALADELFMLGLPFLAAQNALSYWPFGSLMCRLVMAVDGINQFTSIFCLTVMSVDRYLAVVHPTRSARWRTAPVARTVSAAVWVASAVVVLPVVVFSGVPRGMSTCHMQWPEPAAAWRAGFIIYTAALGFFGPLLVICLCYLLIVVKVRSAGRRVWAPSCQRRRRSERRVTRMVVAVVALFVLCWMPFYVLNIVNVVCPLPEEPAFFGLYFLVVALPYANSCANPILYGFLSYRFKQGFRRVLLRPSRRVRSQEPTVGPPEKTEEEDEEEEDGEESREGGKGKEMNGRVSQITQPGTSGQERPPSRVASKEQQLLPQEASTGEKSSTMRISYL

[7] = target: T4, somatostatin receptor SSTR1 (Human, UniProt P30872 1-391); experiment: cell-based or functional assay
T4 sequence (P30872 whole entry): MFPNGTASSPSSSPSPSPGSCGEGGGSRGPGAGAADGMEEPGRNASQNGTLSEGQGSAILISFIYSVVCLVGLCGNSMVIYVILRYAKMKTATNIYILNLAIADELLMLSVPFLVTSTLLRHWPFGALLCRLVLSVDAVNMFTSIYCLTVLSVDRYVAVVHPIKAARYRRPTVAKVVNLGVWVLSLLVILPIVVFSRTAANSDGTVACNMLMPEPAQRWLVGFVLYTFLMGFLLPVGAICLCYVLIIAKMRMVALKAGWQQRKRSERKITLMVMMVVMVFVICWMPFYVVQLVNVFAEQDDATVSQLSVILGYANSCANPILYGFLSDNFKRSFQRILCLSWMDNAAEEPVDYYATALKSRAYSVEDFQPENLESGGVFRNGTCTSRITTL

[8] = target: T1, somatostatin receptor SSTR4; experiment: cell-based or functional assay; remark: listed apart in the source
[9] = target: T4, somatostatin receptor SSTR1; experiment: cell-based or functional assay; remark: listed apart in the source
[10] = target: T1, somatostatin receptor SSTR4; experiment: cell-based or functional assay; remark: listed apart in the source
[11] = target: T3, somatostatin receptor SSTR3; experiment: cell-based or functional assay; remark: listed apart in the source

B1: S1C(disialo)-SRIF28 (peptide)
peptide: C(disialo)ANSNPAMAPRERKAGCKNFFWKTFTSC
modifications: disulfide 17-28
IC50, cAMP production suppressing action [1]: 0.065 nM | IC50, cAMP production suppressing action [2]: 0.075 nM | Ki [3]: 0.269 nM

B2: S1C(disialo)•N5C(disialo)-SRIF28 (peptide)
peptide: C(disialo)ANSC(disialo)PAMAPRERKAGCKNFFWKTFTSC
modifications: disulfide 17-28
IC50, cAMP production suppressing action [4]: 0.09 nM

B3: S1C(disialo)•N19C(GlcNAc)-SRIF28 (peptide)
peptide: C(disialo)ANSNPAMAPRERKAGCKC(GlcNAc)FFWKTFTSC
modifications: disulfide 17-28
IC50, cAMP production suppressing action [5]: 0.08 nM

B4: S1C(disialo(aminoethylamide))-SRIF28 (peptide)
peptide: C(disialo(aminoethylamide))ANSNPAMAPRERKAGCKNFFWKTFTSC
modifications: disulfide 17-28
IC50, cAMP production suppressing action [6]: 0.3 nM | IC50, cAMP production suppressing action [2]: 0.1 nM | IC50, cAMP production suppressing action [7]: 1 nM

B5: C(disialo)-R-K-SRIF14 (peptide)
peptide: C(disialo sugar chain)RKAGCKNFFWKTFTSC
modifications: disulfide 6-17
IC50, cAMP production suppressing action [1]: 0.05 nM

B6: S1-3C(asialo)-SRIF28 (peptide)
peptide: CCCANSNPAMAPRERKAGCKNFFWKTFTSC
modifications: Ser1 replaced by three consecutive Cys each with an asialo sugar chain; disulfide Cys17-Cys28
IC50, cAMP production suppressing action [8]: 0.1 nM

B7: C(disialo)-SRIF14 (peptide)
peptide: CAGCKNFFWKTFTSC
modifications: disialo sugar chain on the Cys added before Ala15; disulfide Cys17-Cys28
IC50, cAMP production suppressing action [8]: 0.1 nM

B8: S1C(trisialo)-SRIF28 (peptide)
peptide: C(trisialo sugar chain)ANSNPAMAPRERKAGCKNFFWKTFTSC
modifications: disulfide 17-28
IC50, cAMP production suppressing action [4]: 0.09 nM

B9: S1C(Asn(disialo))-SRIF28 (peptide)
peptide: C([Asn-disialo])ANSNPAMAPRERKAGCKNFFWKTFTSC
modifications: disulfide 17-28
IC50, cAMP production suppressing action [9]: 2 nM

B10: S1C(diGlcNAc)-SRIF28 (peptide)
peptide: C(diGlcNAc)ANSNPAMAPRERKAGCKNFFWKTFTSC
modifications: disulfide 17-28
IC50, cAMP production suppressing action [8]: 0.05 nM

B11: S1C(GlcNAc)-SRIF28 (peptide)
peptide: C(GlcNAc)ANSNPAMAPRERKAGCKNFFWKTFTSC
modifications: disulfide 17-28
IC50, cAMP production suppressing action [5]: 0.04 nM

B12: 3C(disialo)-R-K-SRIF14 (peptide)
peptide: CCCRKAGCKNFFWKTFTSC
modifications: disialo sugar chain on each of the three N-terminal Cys of the added Cys-Cys-Cys-Arg-Lys-; disulfide Cys17-Cys28
IC50, cAMP production suppressing action [10]: 1.6 nM

B13: S1C(asialo)-SRIF28 (peptide)
peptide: C(asialo)ANSNPAMAPRERKAGCKNFFWKTFTSC
modifications: disulfide 17-28; reading uncertain
IC50 [3]: 0.2 nM

B14: C(disialo)-K-SRIF14 (peptide)
peptide: C(disialo sugar chain)KAGCKNFFWKTFTSC
modifications: disulfide 5-16
IC50, cAMP production suppressing action [11]: 0.1 nM
